Results published in US20190127462A1 (UNIVERSITY OF TSUKUBA, published 2019).

T1: human DNAX accessory molecule-1 (DNAM-1) protein (human, UniProt Q15762 19-336)
T1 construct: whole, on cells; Expressed on BW5147 mouse lymphocyte cells (DNAM-1/BW) or present on human peripheral blood lymphocytes / CD8+ T cells; also called CD226; human DMAM-1 protein
T1 sequence (looked up): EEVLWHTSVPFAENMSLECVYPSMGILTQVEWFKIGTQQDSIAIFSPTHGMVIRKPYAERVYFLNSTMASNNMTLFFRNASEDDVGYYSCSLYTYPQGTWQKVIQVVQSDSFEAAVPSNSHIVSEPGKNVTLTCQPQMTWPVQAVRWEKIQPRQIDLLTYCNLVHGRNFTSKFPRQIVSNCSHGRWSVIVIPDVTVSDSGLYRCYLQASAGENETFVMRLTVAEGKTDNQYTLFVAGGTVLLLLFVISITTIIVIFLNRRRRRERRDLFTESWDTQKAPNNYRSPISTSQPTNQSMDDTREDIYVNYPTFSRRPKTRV

B1: anti-human DNAM-1 monoclonal antibody No. 1 (antibody, V domains shown)
VH: SQSLSLTCSVTGYSITSGYYWNWIRQFPGNKLEWMGYISYDGSNNYNPSLKNRISITRDTSKNQFFLKLNSVTTEDTATYYCARAYYGNYVGYFDVWGAGTTVTVSS
VL: RVTITCKASQSVSNDVAWYQQKPGQSPKLLIYYASNRYTGVPDRFTGSGYGTDFTFTISTVQAEDLAVYFCQQDYSSPLTFGAGTKLELKR
notes: Mouse hybridoma monoclonal antibody
B2: anti-human DNAM-1 monoclonal antibody No. 2 (antibody, V domains shown)
VH: SQSLSLTCTVTGYSITSDYAWNWIRQFPGNKLEWMGYISYSGTTTYNPSLKSRISITRDTSKNQFFLQLNSVTTEDTATYYCAELSMDYWGQGTSVTVSS
VL: DIVLSQSPAILSVSPGERVSFSCRASQSIGTSIHWYQQRTNGSPRLLIKYASESISGIPSRFSGSGSGTDFTLSINSVESEDIADYYCQQSRSWPLTFGAGTKLELKR
notes: as for B1
B3: anti-human DNAM-1 monoclonal antibody No. 3 (antibody, V domains shown)
VH: EISCKASGYTFTNYWLGWVKQRPGHGLEWIGDIYPGGGYTNYNEKFKGKATLTADTSSSTAYMQLSSLTSEDSAVYFCANAYYRYKGFAYWGQGTLVTVSA
VL: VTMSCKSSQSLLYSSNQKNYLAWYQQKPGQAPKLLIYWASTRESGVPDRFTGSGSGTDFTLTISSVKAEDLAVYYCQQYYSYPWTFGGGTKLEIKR
notes: as for B1
B4: anti-human DNAM-1 monoclonal antibody No. 4 (antibody, V domains shown)
VH: KWGLSEISCKASGYTFTDYNMHWVKQSHGKSLEWIGYIYPYNGGTGYNQKFKSKATLTVDNSSSTAYMELRSLTSEDSAVYYCAGYWYFDVWGAGTTVTVSS
VL: EKVSITCKASQDVGTAVAWYQQKPGQSPKLLIYWASTRHTGVPDRFTGSGSGTDFTLTISNVQSEDLADYFCQQYSSYPWTFGGGTKLEIKR
notes: as for B1

target: T1, human DNAX accessory molecule-1 …; experiment: flow cytometry; 1x10^5 DNAM-1/BW cells pre-saturated with 1000 ng hCD155-Fc (competitor); remaining hCD155-Fc detected
Protocol: After DNAM-1/BW cells reacted with the hCD155-Fc protein in advance had been reacted with a specific one of the monoclonal antibody No. 1 to No. 6 diluted serially in Test example 6, the hCD155-Fc protein bound to the DNAM-1 protein present on the surfaces of the DNAM-1/BW cells was detected. The detection of the hCD155-Fc protein was conducted using an anti-human IgG antibody. The reaction was made on ice for 30 minutes.
It was also confirmed that, in the range where the concentration of the monoclonal antibody reacted with the DNAM-1/BW cells was low, the reidues of hCD155-Fc protein after the DNAM-1/BW cells had been reacted with the monoclonal antibody No. 3 was smaller than that of hCD155-Fc protein after the DNAM-1/BW cells had been reacted with the monoclonal antibody No. 2. This proves that, in the range where the concentration of the monoclonal antibody reacted with the DNAM-1/BW cells was low, the monoclonal antibody No. 3 had higher activity of inhibiting the interaction between the DNAM-1 protein and the CD155 protein than the monoclonal antibody No. 2. In the range where the concentration of the monoclonal antibody reacted with the DNAM-1/BW cells was high, the difference in the above reactivity between the monoclonal antibody Nos. 2 and 3 was small. The amount of monoclonal antibody No. 3 required for completely inhibiting the interaction between the DNAM-1 protein and the CD155 protein was 300 ng.

Compared with B1, B2 is higher in “amount required for completely inhibiting the interaction between the DNAM-1 protein and the CD155 protein” value: 100 ng for the first, 300 ng for the second.

Going from B3 to B4, the “amount required for completely inhibiting the interaction between the DNAM-1 protein and the CD155 protein” value rises from 300 ng to 1000 ng.

target: T1, human DNAX accessory molecule-1 …; experiment: flow cytometry on 1x10^5 DNAM-1/BW cells

First: B1
Second: B2
The “minimum amount required for saturating human DNAM-1 on 1x10^5 DNAM-1/BW cells” value of the first is lower: 30 ng for the first, 50 ng for the second.

B3 and B4 are the same in “minimum amount required for saturating human DNAM-1 on 1x10^5 DNAM-1/BW cells” value: 100 ng for the first, 100 ng for the second.
